These results are taken from patent publication US20260042862A1 (AGENCY FOR SCIENCE TECHNOLOGY AND RESEARCH, published 2026).

Experiment [1] concerns the target T1, recombinant human GPC-3 protein (human, UniProt P51654 25-559, limits assumed).
T1 construct: also called glypican-3; recombinant GPC-3 protein
The experiment is described as follows: SPR, Biacore T200. The protocol: Affinity of 24 anti-GPC-3 IgG₁ antibodies was measured via Surface Plasmon Resonance (SPR) analysis using Biacore™ T200 system and shown in Table E3 (below).

For experiment [2], the target named is T1, recombinant human GPC-3 protein. Kind of experiment: binding ELISA with biotin-hGPC-3, EC50 calculated from the curves of FIG. 1A to 1C.
Experiment [3] addresses T2, mouse GPC-3 on the surface of transduced cells (Hepa1-6-mGPC-3, MC38-mGPC-3) (mouse, UniProt Q8CFZ4 25-553).
T2 construct: whole, on cells
Kind of experiment: flow cytometry histograms, 20 nM antibody, Hepa1-6-mGPC-3 against parental Hepa1-6 cells.

The target of experiment [4] is T3, recombinant mouse GPC-3 protein (mouse, UniProt Q8CFZ4 25-558, limits assumed, biotinylated (sites not given)).
T3 construct: Biotinylated for the cross-reactivity ELISA; also called mouse homolog of GPC-3 protein
T3 sequence (Q8CFZ4 25-558 limits assumed): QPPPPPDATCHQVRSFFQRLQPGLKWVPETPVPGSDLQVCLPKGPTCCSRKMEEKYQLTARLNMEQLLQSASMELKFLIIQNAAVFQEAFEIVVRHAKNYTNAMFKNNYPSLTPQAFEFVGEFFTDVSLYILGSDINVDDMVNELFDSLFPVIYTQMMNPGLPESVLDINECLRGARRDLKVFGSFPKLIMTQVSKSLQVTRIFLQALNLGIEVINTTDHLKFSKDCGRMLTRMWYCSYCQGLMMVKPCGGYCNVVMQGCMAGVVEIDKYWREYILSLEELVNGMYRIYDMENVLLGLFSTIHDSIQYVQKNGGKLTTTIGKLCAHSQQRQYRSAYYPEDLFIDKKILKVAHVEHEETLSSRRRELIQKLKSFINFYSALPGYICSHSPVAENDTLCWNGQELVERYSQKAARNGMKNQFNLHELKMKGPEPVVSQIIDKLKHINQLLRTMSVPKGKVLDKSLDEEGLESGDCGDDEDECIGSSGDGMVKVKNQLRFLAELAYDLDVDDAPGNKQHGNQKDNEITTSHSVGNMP
The experiment is described as follows: cross-reactivity binding ELISA with biotinylated recombinant GPC-3, absorbance 450nm-570nm.

T2 sequence (Q8CFZ4 25-553 limits assumed): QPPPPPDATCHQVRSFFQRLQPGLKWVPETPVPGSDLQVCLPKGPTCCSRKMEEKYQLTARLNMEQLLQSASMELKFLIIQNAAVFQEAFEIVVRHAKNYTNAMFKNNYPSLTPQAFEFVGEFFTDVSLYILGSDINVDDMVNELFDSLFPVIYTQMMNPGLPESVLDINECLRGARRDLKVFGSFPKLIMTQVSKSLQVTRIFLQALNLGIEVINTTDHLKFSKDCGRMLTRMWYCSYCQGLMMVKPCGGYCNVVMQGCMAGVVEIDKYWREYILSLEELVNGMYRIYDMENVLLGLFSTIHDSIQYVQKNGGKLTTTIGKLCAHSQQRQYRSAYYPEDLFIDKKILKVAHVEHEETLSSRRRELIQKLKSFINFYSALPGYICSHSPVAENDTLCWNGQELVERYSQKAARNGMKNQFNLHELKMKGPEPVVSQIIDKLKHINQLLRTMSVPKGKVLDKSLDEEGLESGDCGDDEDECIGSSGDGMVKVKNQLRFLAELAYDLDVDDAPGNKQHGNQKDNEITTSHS

B1: anti-GPC-3 IgG1 clone 1D8 (antibody, V domains shown)
VH: QVQLVQSGAEVKKPGASVKVSCKASGYTFTSYGISWVRQAPGQGLEWMGWISAYNGNTNYAQKLQGRVTMTTDTSTSTAYMELRSLRSDDTAVYYCARDGGLIAAAFGYYYYGMDVWGQGTT
VL: EIVLTQSPGTLSLSPGERATLSCRASQSVSSYLAWYQQKPGQAPRLLIYGASSRATGIPDRFSGSGSGTDFTLTISRLEPEDFAVYYCQQYERPPTFGGGTK
notes: Tested as IgG1; also called monoclonal antibody 1D8
For the molecule B1, in experiment [1], the Kd came out at 0.0137 µM, the off-rate (koff) is 0.0053 s⁻¹ and the association rate constant (kon) stood at 388000 M⁻¹ s⁻¹. The concentration giving a half-maximal response (EC50) in experiment [2] is 0.00901 µM. Moreover, the binding result in experiment [3] was “no binding (tested: 20 nM)”. For the same molecule, the binding result in experiment [4] is on record as “no binding”.
